Results taken from patent publication JP2006246896A.

Biological target: ヒトEGFレセプター(細胞表面に発現) (human) (UniProt P00533)
Assay: cell ELISA on glutaraldehyde-fixed A431 cells, compared with chimeric C225

B1: 再形成ヒトH225抗体(225RKA/225RHA) (antibody, V domains shown)
VH: EVQLVESGGGLVQPGGSLRLSCAVSGFSLTNYGVHWVRQATGKGLEWLGVIWSGGNTDYNTPFTSRLTISKENAKNSLYLQMNSLRAGDTAVYYCARALTYYDYEFAYWGQGTM
VL: EIVLTQSPATLSLSPGERATLSCRASQSIGTNIHWYQQRPGQAPRLLIKYASESISGIPARFSGSGSGTDFTLTISSLEPEDFAVYYCQQNNNWPTTFGGG
- 相対親和力 (relative to chimeric C225): 65%
